Patent US20110142842A1, “POLYPEPTIDES” (Medinnova AS, priority 2007, published 2011)

Target: HLA-A*0201 (human), A*02:0
Experiment: REVEAL MHC binding assay (ProImmune)

## FLYGVILTV (modifications not checked) [Peptide ID 131 … (TCR_TV, modified peptide)]
  % Pass/fail control (% of pass/fail control): 257
